Values of other authors as cited in patent publication US20220162649A1, “NOVEL NUCLEIC ACID MODIFIERS” (THE BROAD INSTITUTE, INC., priority 2019, published 2022).

System: target DNA
Conditions: SaCas9 mutants; cited from earlier work

B1: SaCas9 T787A: SaCas9 phosphate lock loop mutant (protein, UniProt J7RUA5 1-1053, looked up, variant T787A)
CRISPR-associated …: MKRNYILGLDIGITSVGYGIIDYETRDVIDAGVRLFKEANVENNEGRRSKRGARRLKRRRRHRIQRVKKLLFDYNLLTDHSELSGINPYEARVKGLSQKLSEEEFSAALLHLAKRRGVHNVNEVEEDTGNELSTKEQISRNSKALEEKYVAELQLERLKKDGEVRGSINRFKTSDYVKEAKQLLKVQKAYHQLDQSFIDTYIDLLETRRTYYEGPGEGSPFGWKDIKEWYEMLMGHCTYFPEELRSVKYAYNADLYNALNDLNNLVITRDENEKLEYYEKFQIIENVFKQKKKPTLKQIAKEILVNEEDIKGYRVTSTGKPEFTNLKVYHDIKDITARKEIIENAELLDQIAKILTIYQSSEDIQEELTNLNSELTQEEIEQISNLKGYTGTHNLSLKAINLILDELWHTNDNQIAIFNRLKLVPKKVDLSQQKEIPTTLVDDFILSPVVKRSFIQSIKVINAIIKKYGLPNDIIIELAREKNSKDAQKMINEMQKRNRQTNERIEEIIRTTGKENAKYLIEKIKLHDMQEGKCLYSLEAIPLEDLLNNPFNYEVDHIIPRSVSFDNSFNNKVLVKQEENSKKGNRTPFQYLSSSDSKISYETFKKHILNLAKGKGRISKTKKEYLLEERDINRFSVQKDFINRNLVDTRYATRGLMNLLRSYFRVNNLDVKVKSINGGFTSFLRRKWKFKKERNKGYKHHAEDALIIANADFIFKEWKKLDKAKKVMENQMFEEKQAESMPEIETEQEYKEIFITPHQIKHIKDFKDYKYSHRVDKKPNRELINDALYSTRKDDKGNTLIVNNLNGLYDKDNDKLKKLINKSPEKLLMYHHDPQTYQKLKLIMEQYGDEKNPLYKYYEETGNYLTKYSKKDNGPVIKKIKYYGNKLNAHLDITDDYPNSRNKVVKLSLKPYRFDVYLDNGVYKFVTVKNLDVIKKENYYEVNSKCYEEAKKLKKISNQAEFIASFYNNDLIKINGELYRVIGVNNDLLNRIEVNMIDITYREYLENMNDKRPPRIIKTIASKTQSIKKYSTDILGNLYEVKSKKHPQIIKKG
For B1, the “DNA cleavage activity, in words” value is listed as “reduced DNA cleavage activity”.

B2: D704A: SaCas9 RuvC catalytic residue mutant (protein, UniProt J7RUA5 1-1053, looked up, variant D704A)
CRISPR-associated …: MKRNYILGLDIGITSVGYGIIDYETRDVIDAGVRLFKEANVENNEGRRSKRGARRLKRRRRHRIQRVKKLLFDYNLLTDHSELSGINPYEARVKGLSQKLSEEEFSAALLHLAKRRGVHNVNEVEEDTGNELSTKEQISRNSKALEEKYVAELQLERLKKDGEVRGSINRFKTSDYVKEAKQLLKVQKAYHQLDQSFIDTYIDLLETRRTYYEGPGEGSPFGWKDIKEWYEMLMGHCTYFPEELRSVKYAYNADLYNALNDLNNLVITRDENEKLEYYEKFQIIENVFKQKKKPTLKQIAKEILVNEEDIKGYRVTSTGKPEFTNLKVYHDIKDITARKEIIENAELLDQIAKILTIYQSSEDIQEELTNLNSELTQEEIEQISNLKGYTGTHNLSLKAINLILDELWHTNDNQIAIFNRLKLVPKKVDLSQQKEIPTTLVDDFILSPVVKRSFIQSIKVINAIIKKYGLPNDIIIELAREKNSKDAQKMINEMQKRNRQTNERIEEIIRTTGKENAKYLIEKIKLHDMQEGKCLYSLEAIPLEDLLNNPFNYEVDHIIPRSVSFDNSFNNKVLVKQEENSKKGNRTPFQYLSSSDSKISYETFKKHILNLAKGKGRISKTKKEYLLEERDINRFSVQKDFINRNLVDTRYATRGLMNLLRSYFRVNNLDVKVKSINGGFTSFLRRKWKFKKERNKGYKHHAEAALIIANADFIFKEWKKLDKAKKVMENQMFEEKQAESMPEIETEQEYKEIFITPHQIKHIKDFKDYKYSHRVDKKPNRELINDTLYSTRKDDKGNTLIVNNLNGLYDKDNDKLKKLINKSPEKLLMYHHDPQTYQKLKLIMEQYGDEKNPLYKYYEETGNYLTKYSKKDNGPVIKKIKYYGNKLNAHLDITDDYPNSRNKVVKLSLKPYRFDVYLDNGVYKFVTVKNLDVIKKENYYEVNSKCYEEAKKLKKISNQAEFIASFYNNDLIKINGELYRVIGVNNDLLNRIEVNMIDITYREYLENMNDKRPPRIIKTIASKTQSIKKYSTDILGNLYEVKSKKHPQIIKKG
In the case of B2, the “DNA cleavage activity, in words” value is given as “almost no DNA cleavage activities”.

B3: H701A: SaCas9 RuvC catalytic residue mutant (protein, UniProt J7RUA5 1-1053, looked up, variant H701A)
CRISPR-associated …: MKRNYILGLDIGITSVGYGIIDYETRDVIDAGVRLFKEANVENNEGRRSKRGARRLKRRRRHRIQRVKKLLFDYNLLTDHSELSGINPYEARVKGLSQKLSEEEFSAALLHLAKRRGVHNVNEVEEDTGNELSTKEQISRNSKALEEKYVAELQLERLKKDGEVRGSINRFKTSDYVKEAKQLLKVQKAYHQLDQSFIDTYIDLLETRRTYYEGPGEGSPFGWKDIKEWYEMLMGHCTYFPEELRSVKYAYNADLYNALNDLNNLVITRDENEKLEYYEKFQIIENVFKQKKKPTLKQIAKEILVNEEDIKGYRVTSTGKPEFTNLKVYHDIKDITARKEIIENAELLDQIAKILTIYQSSEDIQEELTNLNSELTQEEIEQISNLKGYTGTHNLSLKAINLILDELWHTNDNQIAIFNRLKLVPKKVDLSQQKEIPTTLVDDFILSPVVKRSFIQSIKVINAIIKKYGLPNDIIIELAREKNSKDAQKMINEMQKRNRQTNERIEEIIRTTGKENAKYLIEKIKLHDMQEGKCLYSLEAIPLEDLLNNPFNYEVDHIIPRSVSFDNSFNNKVLVKQEENSKKGNRTPFQYLSSSDSKISYETFKKHILNLAKGKGRISKTKKEYLLEERDINRFSVQKDFINRNLVDTRYATRGLMNLLRSYFRVNNLDVKVKSINGGFTSFLRRKWKFKKERNKGYKHAAEDALIIANADFIFKEWKKLDKAKKVMENQMFEEKQAESMPEIETEQEYKEIFITPHQIKHIKDFKDYKYSHRVDKKPNRELINDTLYSTRKDDKGNTLIVNNLNGLYDKDNDKLKKLINKSPEKLLMYHHDPQTYQKLKLIMEQYGDEKNPLYKYYEETGNYLTKYSKKDNGPVIKKIKYYGNKLNAHLDITDDYPNSRNKVVKLSLKPYRFDVYLDNGVYKFVTVKNLDVIKKENYYEVNSKCYEEAKKLKKISNQAEFIASFYNNDLIKINGELYRVIGVNNDLLNRIEVNMIDITYREYLENMNDKRPPRIIKTIASKTQSIKKYSTDILGNLYEVKSKKHPQIIKKG
For B3, the “DNA cleavage activity, in words” value is listed as “almost no DNA cleavage activities”.

B4: D10A: SaCas9 RuvC catalytic residue mutant (protein, UniProt J7RUA5 1-1053, looked up, variant D10A)
CRISPR-associated …: MKRNYILGLAIGITSVGYGIIDYETRDVIDAGVRLFKEANVENNEGRRSKRGARRLKRRRRHRIQRVKKLLFDYNLLTDHSELSGINPYEARVKGLSQKLSEEEFSAALLHLAKRRGVHNVNEVEEDTGNELSTKEQISRNSKALEEKYVAELQLERLKKDGEVRGSINRFKTSDYVKEAKQLLKVQKAYHQLDQSFIDTYIDLLETRRTYYEGPGEGSPFGWKDIKEWYEMLMGHCTYFPEELRSVKYAYNADLYNALNDLNNLVITRDENEKLEYYEKFQIIENVFKQKKKPTLKQIAKEILVNEEDIKGYRVTSTGKPEFTNLKVYHDIKDITARKEIIENAELLDQIAKILTIYQSSEDIQEELTNLNSELTQEEIEQISNLKGYTGTHNLSLKAINLILDELWHTNDNQIAIFNRLKLVPKKVDLSQQKEIPTTLVDDFILSPVVKRSFIQSIKVINAIIKKYGLPNDIIIELAREKNSKDAQKMINEMQKRNRQTNERIEEIIRTTGKENAKYLIEKIKLHDMQEGKCLYSLEAIPLEDLLNNPFNYEVDHIIPRSVSFDNSFNNKVLVKQEENSKKGNRTPFQYLSSSDSKISYETFKKHILNLAKGKGRISKTKKEYLLEERDINRFSVQKDFINRNLVDTRYATRGLMNLLRSYFRVNNLDVKVKSINGGFTSFLRRKWKFKKERNKGYKHHAEDALIIANADFIFKEWKKLDKAKKVMENQMFEEKQAESMPEIETEQEYKEIFITPHQIKHIKDFKDYKYSHRVDKKPNRELINDTLYSTRKDDKGNTLIVNNLNGLYDKDNDKLKKLINKSPEKLLMYHHDPQTYQKLKLIMEQYGDEKNPLYKYYEETGNYLTKYSKKDNGPVIKKIKYYGNKLNAHLDITDDYPNSRNKVVKLSLKPYRFDVYLDNGVYKFVTVKNLDVIKKENYYEVNSKCYEEAKKLKKISNQAEFIASFYNNDLIKINGELYRVIGVNNDLLNRIEVNMIDITYREYLENMNDKRPPRIIKTIASKTQSIKKYSTDILGNLYEVKSKKHPQIIKKG
For B4, the “DNA cleavage activity, in words” value is listed as “almost no DNA cleavage activities”.

B5: E477A: SaCas9 RuvC catalytic residue mutant (protein, UniProt J7RUA5 1-1053, looked up, variant E477A)
CRISPR-associated …: MKRNYILGLDIGITSVGYGIIDYETRDVIDAGVRLFKEANVENNEGRRSKRGARRLKRRRRHRIQRVKKLLFDYNLLTDHSELSGINPYEARVKGLSQKLSEEEFSAALLHLAKRRGVHNVNEVEEDTGNELSTKEQISRNSKALEEKYVAELQLERLKKDGEVRGSINRFKTSDYVKEAKQLLKVQKAYHQLDQSFIDTYIDLLETRRTYYEGPGEGSPFGWKDIKEWYEMLMGHCTYFPEELRSVKYAYNADLYNALNDLNNLVITRDENEKLEYYEKFQIIENVFKQKKKPTLKQIAKEILVNEEDIKGYRVTSTGKPEFTNLKVYHDIKDITARKEIIENAELLDQIAKILTIYQSSEDIQEELTNLNSELTQEEIEQISNLKGYTGTHNLSLKAINLILDELWHTNDNQIAIFNRLKLVPKKVDLSQQKEIPTTLVDDFILSPVVKRSFIQSIKVINAIIKKYGLPNDIIIALAREKNSKDAQKMINEMQKRNRQTNERIEEIIRTTGKENAKYLIEKIKLHDMQEGKCLYSLEAIPLEDLLNNPFNYEVDHIIPRSVSFDNSFNNKVLVKQEENSKKGNRTPFQYLSSSDSKISYETFKKHILNLAKGKGRISKTKKEYLLEERDINRFSVQKDFINRNLVDTRYATRGLMNLLRSYFRVNNLDVKVKSINGGFTSFLRRKWKFKKERNKGYKHHAEDALIIANADFIFKEWKKLDKAKKVMENQMFEEKQAESMPEIETEQEYKEIFITPHQIKHIKDFKDYKYSHRVDKKPNRELINDTLYSTRKDDKGNTLIVNNLNGLYDKDNDKLKKLINKSPEKLLMYHHDPQTYQKLKLIMEQYGDEKNPLYKYYEETGNYLTKYSKKDNGPVIKKIKYYGNKLNAHLDITDDYPNSRNKVVKLSLKPYRFDVYLDNGVYKFVTVKNLDVIKKENYYEVNSKCYEEAKKLKKISNQAEFIASFYNNDLIKINGELYRVIGVNNDLLNRIEVNMIDITYREYLENMNDKRPPRIIKTIASKTQSIKKYSTDILGNLYEVKSKKHPQIIKKG
For B5, the “DNA cleavage activity, in words” value is given as “almost no DNA cleavage activities”.
